According to US10669350B2, “Antigen-binding constructs that bind to and inhibit catalase and/or superoxide dismutase as well as pharmaceutical compositions containing them for tumor therapy” (priority 2015, dated 2020):
Each block holds one molecule with its values, some of them ahead of it.

Assays:
[1] = tested on: MKN-45 gastric carcinoma cells; test: Standard preparation for autocrine ROS-controlled apoptosis induction in tumor cells (percentage of apoptotic cells); assay type: cell-based, human
Experimental: The experiments shown in FIG. 13-24 were carried out with a standard preparation for the apoptosis induction that is based on the method performed in Heinzelmann and Bauer 2010. The tumor cells used were taken from an optimally growing semi-sealed culture, centrifuged and placed in fresh medium. The test was performed in 96-well cell culture plates with 12 500 MKN-45 cells/100 μl medium or 10 000 SHEP cells/100 μl medium. MKN-45 cells grow in suspension, SHEP cells are adherent. The tests with SHEP cells were started as soon as the cells had grown on. By adding increasing concentrations of single domain VHH fragments that either inhibit catalase or SOD the protection of the tumor cells from their own ROS signaling was annulled so that based on the cell-owned extracellular superoxide anion production the NO/peroxynitrite signal path and the HOCl path (with MKN-45 cells) or in case of the SHEP cells only the NO/peroxynitrite path could start when the cells were incubated at 37° C. The analysis of the signal paths was carried out by the application of inhibitors of the NADPH oxidase (AEBSF), the HOCl scavenger taurine, the peroxynitrite scavenger FeTPPS and the singlet oxygen scavenger histidine. In some experiments for comparison instead of the single domain VHH fragments either recombinant Fab fragments or monoclonal antibodies were applied. This is indicated in the respective illustrations.
Double preparations were examined at the times shown in the text by means of phase contrast reverse microscopy for the percentage of apoptotic cells. Here, the classical apoptosis criteria described and documented in Heinzelmann and Bauer 2010 such as condensation of the nucleus, fragmentation of the nucleus, and membrane blebbing were used. Per single preparation at least 250 randomly selected cells were examined for the presence of apoptosis features. […]

human catalase [2] = biological target: T1, human catalase (Homo sapiens, UniProt P04040); test: ELISA selection of clones binding to human catalase
T1 sequence (P04040 2-527 limits assumed): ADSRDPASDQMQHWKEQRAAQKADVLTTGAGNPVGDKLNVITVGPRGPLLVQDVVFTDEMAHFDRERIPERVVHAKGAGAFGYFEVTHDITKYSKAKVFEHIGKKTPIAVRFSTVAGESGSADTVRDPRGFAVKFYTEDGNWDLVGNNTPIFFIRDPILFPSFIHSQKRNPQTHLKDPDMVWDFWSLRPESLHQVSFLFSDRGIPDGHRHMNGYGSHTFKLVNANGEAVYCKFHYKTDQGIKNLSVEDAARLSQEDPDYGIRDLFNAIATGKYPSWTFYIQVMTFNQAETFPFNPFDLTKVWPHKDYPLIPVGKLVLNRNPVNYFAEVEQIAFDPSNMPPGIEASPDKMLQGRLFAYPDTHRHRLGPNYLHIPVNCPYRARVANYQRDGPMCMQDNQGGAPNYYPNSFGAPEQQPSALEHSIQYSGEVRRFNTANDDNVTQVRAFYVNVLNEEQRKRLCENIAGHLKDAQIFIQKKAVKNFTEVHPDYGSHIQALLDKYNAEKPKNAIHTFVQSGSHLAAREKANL
Excerpt: […] […] In a second run, by employing the cell culture system described by Heinzelmann and Bauer (Heinzelmann S. and Bauer G. Multiple protective functions of catalase against intercellular apoptosis-inducing ROS signaling of human tumor cells, Biol. Chem. 391, 675-693, 2010) it was checked which one of the single domain VHH fragments binding to catalase actually results in an inhibition of the catalase, what is expressed as ROS-dependent apoptosis induction in the cells. […] The clones underlying the single domain VHH fragments were sequenced by standard methods and the amino acid sequence was determined therefrom.

human catalase [3] = biological target: T1, human catalase; test: Check for inhibition (neutralization) of catalase, expressed as ROS-dependent apoptosis induction in cell culture system; assay type: cell-based; set-up: catalase-neutralizing single domain VHH fragments only neutralize the membranous catalase of tumor cells; endogenous in cells; host or cells: MKN-45 human gastric carcinoma cells
Excerpt: For the determination of the neutralizing effect of single domain VHH or Fab fragments directed against catalase a test system is suitable that is based on the apoptosis-inducing effect of H2O2 and the degradation of H2O2 by catalase. Here, as the cellular test system both non-malignant and malignant cells can be employed. It is only required that apoptosis induction is quantitatively determinable in the selected cell system. As the H2O2 source, H2O2-generating glucose oxidase (GOX) is preferred over the direct addition of H2O2, because the continuous production of H2O2 by GOX (by using glucose from the culture medium of the cells) allows a very precise adjustment of the H2O2 flux. The test system is based on the inhibition of the apoptosis induction by GOX mediated by catalase and the restoration of the apoptosis induction by catalase-neutralizing single domain VHH or Fab fragments. […] For that, in general depending on the cell system, GOX concentrations between 0.1 and 40 mU/ml are required. In a second step, the concentration of human catalase is determined that is just sufficient to abolish the effect achieved by GOX. […] After successful determination of the suitable concentrations of GOX and catalase then the actual experiment for the determination of the catalase-neutralizing effect of single domain VHH or Fab fragments can be performed. For that, the selected catalase concentration is pre-incubated for 20 minutes with selected concentrations of the single domain VHH or Fab fragments to be tested. Subsequently, said mixture together with the concentration of GOX determined to be suitable is added to the cells and apoptosis induction is measured. A reliable neutralizing effect of the single domain VHH or Fab fragments is obtained if the inhibiting effect of the catalase on the GOX-mediated apoptosis induction was abolished by at least 90%, i.e. if 90% of the apoptosis induction value is achieved that is shown in control preparations without addition of catalase. If there is achieved an abolition of the inhibiting effect of catalase of at least 50% there may be assumed a significant inhibiting effect of the tested single domain VHH or Fab fragment. […]
[…] In a second run, by employing the cell culture system described by Heinzelmann and Bauer (Heinzelmann S. and Bauer G. Multiple protective functions of catalase against intercellular apoptosis-inducing ROS signaling of human tumor cells, Biol. Chem. 391, 675-693, 2010) it was checked which one of the single domain VHH fragments binding to catalase actually results in an inhibition of the catalase, what is expressed as ROS-dependent apoptosis induction in the cells. […] The clones underlying the single domain VHH fragments were sequenced by standard methods and the amino acid sequence was determined therefrom.

human SOD1 [4] = biological target: T2, human SOD1 (Homo sapiens, UniProt P00441); test: ELISA selection of clones binding to human SOD1
Excerpt: The preparation was by immunizing alpacas with human SOD1 (SOD1=Cu/ZnSOD [EC 1.15.1.1] purified from human erythrocytes, obtained from Sigma (Schnelldorf), catalogue number S 9636) under supervision of a veterinary, obtaining RNA from the B cells of the animals, reverse transcription, cloning in E. coli and isolation via the phage display technology. […] In a second run, by employing the cell culture system described by Heinzelmann and Bauer (Multiple protective functions of catalase against intercellular apoptosis-inducing ROS signaling of human tumor cells, Biol. Chem. 391, 675-693, 2010) it was checked which of the single domain VHH fragments binding to SOD actually results in an inhibition of SOD, what is expressed in the tumor system used as ROS-dependent apoptosis induction in the cells, since by the inhibition of SOD the concentration of free superoxide anions dramatically increases due to the absence of the enzymatic dismutation and results in a parallel indirect inhibition of catalase. In the following, this is expressed as ROS-dependent apoptosis induction. In a further control trial the specific inhibition of SOD by recombinant single domain VHH fragments was verified by the fact that the increasing effect of these fragments on apoptosis induction by exogenously added HOCl was examined, as described in Bauer 2013 (HOCl-dependent singlet oxygen and hydroxyl radical generation modulate and induce apoptosis of malignant cells. Anticancer Res 33: 3589-3602, 2013).

human SOD1 [5] = biological target: T2, human SOD1; test: Check for inhibition (neutralization) of SOD, ROS-dependent apoptosis induction and HOCl control trial; assay type: cell-based; set-up: endogenous in cells; host or cells: MKN-45 human gastric carcinoma cells
Excerpt: Thus, the inhibition of the SOD mediated by single domain VHH or Fab fragments (comparison) can be determined by the fact that the apoptosis induction of tumor cells by exogenously added HOCl is employed as the test system. HOCl in a concentration depending manner induces apoptosis that is based on the interaction between HOCl and superoxide anions that results in the formation of aggressive hydroxyl radicals (Bauer G. HOCl-dependent singlet oxygen and hydroxyl radical generation modulate and induce apoptosis of malignant cells. Anticancer Res 33: 3589-3602, 2013). […] That is, the neutralizing effect of single domain VHH or Fab fragments can be determined by checking whether the inhibition of the apoptosis is abolished again by the single domain VHH or Fab fragments to be tested. The quantitative employment of said test system requires linking several simple steps the skilled person is familiar with. In the first step the concentration of commercially available HOCl (or sodium hypochlorite that sufficiently forms HOCl in medium) is determined that generates a significant quantifiable apoptosis signal within a reasonable trial time (1-2 hours). […] As soon as the first two steps have been satisfactorily performed there can take place the actual test of the inhibiting effect of the single domain VHH or Fab fragments. For that, selected concentrations of the fragments to be tested are pre-incubated for 20 minutes with the optimal concentration of SOD determined in advance in step #2. Subsequently, said mixture is added to the test cells. Thereafter, HOCl is added and the apoptosis induction is determined. […]
The preparation was by immunizing alpacas with human SOD1 (SOD1=Cu/ZnSOD [EC 1.15.1.1] purified from human erythrocytes, obtained from Sigma (Schnelldorf), catalogue number S 9636) under supervision of a veterinary, obtaining RNA from the B cells of the animals, reverse transcription, cloning in E. coli and isolation via the phage display technology. […] In the following, this is expressed as ROS-dependent apoptosis induction. […]

T2 sequence (P00441 2-154 limits assumed): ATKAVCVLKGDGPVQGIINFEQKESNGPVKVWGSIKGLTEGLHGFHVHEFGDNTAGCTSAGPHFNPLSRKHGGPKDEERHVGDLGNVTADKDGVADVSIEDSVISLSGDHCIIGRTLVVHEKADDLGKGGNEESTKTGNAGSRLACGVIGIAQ

- binding to human catalase (human catalase [2]): bind to human catalase
- neutralization (inhibition) of human catalase (human catalase [3]): neutralize it
B1: aCATcb0972: single domain VHH fragment that binds to and neutralizes human catalase; SEQ ID NO: 10 (protein)
VHH: MAQVQLVESGGGLVQAGGSLRLSCAASERTFNTYGMGWFRQAPGKEREFVATISWSGDSTYYADSVKGRFTISRDNAKNTMYLQMNSLKPEDTAVYYCNANSEYGDSYWGQGTQVTVSSKKKHHHHHH
modifications: catalase binding
- apoptosis induction in the presence of peroxynitrite scavenger FeTPPS ([1]; 25 μM FeTPPS): only in the left part of the optimum curve results in a strong inhibition and then, changes the optimum curve of apoptosis induction into a plateau curve
- apoptosis induction in the presence of NOX1 inhibitor AEBSF ([1]; 100 μM AEBSF): inhibited by the NOX1 inhibitor AEBSF in the entire range of concentrations
- apoptosis induction in the presence of singlet oxygen scavenger histidine ([1]; 2 mM histidine): does not result in an inhibition of apoptosis, but changes the optimum curve into a plateau curve
- apoptosis induction in the presence of HOCl scavenger taurine ([1]; 50 mM taurine): does not inhibit in the left range of concentrations of the optimum curve, but then results in a strong inhibition of the apoptosis in the entire further range of the optimum curve
- apoptosis induction in combination with 0.005 pg/ml of the complementary single domain VHH fragment ([1]; 3.5 hours, FIG. 18): noteworthy synergistic effect
- concentration at which both signal paths overlap ([1]; FIG. 14): 0.37 pg/mL
- concentration from which no substantial inhibition by FeTPPS but very strong inhibition by taurine (HOCl path) ([1]; FIG. 14): ≥ 0.75 pg/mL
- concentrations at which singlet oxygen seems to play a role ([1]; FIG. 14): > 0.75 pg/mL
- concentration range of the second increase of the apoptosis ([1]; FIG. 14, not inhibited by taurine): ≥ 6.2 pg/mL
- optimum range of the apoptosis induction ([1]; FIGS. 14A and B, 3.5 hours): 0 to 6.2 pg/mL
- optimum conc. ([1]; Table 1, concentration necessary for optimum apoptosis induction, taken from FIGS. 13A, 13B, 15A, 15B, 20): 0.4 pg/mL
- optimum conc. ([1]; Table 2, FIG. 20 experiment, 3.5 hours): 0.17 pg/mL
- apoptosis induction in MKN-45 cells ([1]; increasing concentrations, 3-4 hours at 37° C., 5% CO2): induces apoptosis in the form of an optimum curve and a subsequent second increase
- ROS signaling path induced ([1]; inhibitor analysis): via the NO/peroxynitrite and HOCl path

- binding to human SOD1 (human SOD1 [4]): bind to human SOD1
- neutralization (inhibition) of human SOD1 (human SOD1 [5]): do not neutralize it
B2: aSODcb0987: single domain VHH fragment binding to human SOD1, but not neutralizing; SEQ ID NO: 14 (protein)
VHH: MAQVQLVESGGGIVQPGGSLRLSCVASESISEIDAMYWHRQAPGKERELVAGITNDGTRYYADSVKGRFTISRDNAKSTLYLQMNSLKFEDTAMYYCAALPNPPPGYWGQGTQVTVSSKKKHHHHHH
modifications: SOD binding
